Here are results for five molecules from article PMC4551902, “Aquaporins Mediate Silicon Transport in Humans” (PLoS ONE, 2015).

Series [1] addresses T1, AQP9 (Homo sapiens, UniProt O43315).
T1 construct: full-length human cDNA in Pol1 vector, untagged, expressed in Xenopus laevis oocytes
T1 sequence (O43315 1-295): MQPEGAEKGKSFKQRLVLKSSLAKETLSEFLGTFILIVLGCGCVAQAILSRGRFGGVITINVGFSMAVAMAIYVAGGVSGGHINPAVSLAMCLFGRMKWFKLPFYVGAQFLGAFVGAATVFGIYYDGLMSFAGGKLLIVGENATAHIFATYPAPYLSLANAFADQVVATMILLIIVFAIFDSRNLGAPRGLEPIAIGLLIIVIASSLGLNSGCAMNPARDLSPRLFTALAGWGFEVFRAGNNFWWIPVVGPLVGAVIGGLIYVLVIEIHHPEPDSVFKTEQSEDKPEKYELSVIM
In words: Si influx and osmotic water transport in oocytes. Particulars: 0.1 mM phloretin; Si influx: B2a hypoosmolar medium, 2 mM H4SiO4, 30 min; water transport: ~10 mM sucrose, 20 s. In kind it is cell-based.

The target of series [2] is T2, lsi1 (Oryza sativa, UniProt Q6Z2T3).
T2 construct: gene NIP2-1; expressed in Xenopus laevis oocytes
T2 sequence (Q6Z2T3 1-298): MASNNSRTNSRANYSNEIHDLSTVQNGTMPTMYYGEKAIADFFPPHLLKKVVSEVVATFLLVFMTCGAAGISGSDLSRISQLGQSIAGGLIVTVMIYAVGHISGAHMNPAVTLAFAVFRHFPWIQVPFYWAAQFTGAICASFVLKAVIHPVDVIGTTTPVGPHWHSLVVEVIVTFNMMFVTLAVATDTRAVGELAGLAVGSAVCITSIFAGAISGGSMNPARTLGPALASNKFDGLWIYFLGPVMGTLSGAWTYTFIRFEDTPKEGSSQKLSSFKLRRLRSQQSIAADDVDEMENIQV
The series is described as follows: 68Ge influx into oocytes, liquid scintillation counting. In kind it is cell-based. The conditions noted are these: 2 mM H4GeO4 with 68Ge tracer, B1 medium, pH 7.4, 90 min; labelled compound.

Substrate in series [3]: O[Si](O)(O)O
The series is described as follows: cells, lysate or membranes. The conditions noted are these: B1 medium, 4-parameter logistic fit.

For the molecule `O=C(CCc1ccc(O)cc1)c1c(O)cc(O)cc1O` [phloretin], the “effect on Si influx and water transport at 0.1 mM” value in series [1] is reported as “Si transport by AQP9 is seen to be stimulated by the water transport inhibitor phloretin”.
Take `[OH][Ge]([OH])([OH])[OH]` [H4GeO4]: in series [2], the “68Ge influx into oocytes, liquid scintillation counting” value was “significantly different relative to background, between channels (for a given substrate)”.

B1: AQP10 (Homo sapiens) (protein)
chain: MVFTQAPAEIMGHLRIRSLLARQCLAEFLGVFVLMLLTQGAVAQAVTSGETKGNFFTMFLAGSLAVTIAIYVGGNVSGAHLNPAFSLAMCIVGRLPWVKLPIYILVQLLSAFCASGATYVLYHDALQNYTGGNLTVTGPKETASIFATYPAPYLSLNNGFLDQVLGTGMLIVGLLAILDRRNKGVPAGLEPVVVGMLILALGLSMGANCGIPLNPARDLGPRLFTYVAGWGPEVFSAGNGWWWVPVVAPLVGATVGTATYQLLVALHHPEGPEPAQDLVSAQHKASELETPASAQMLECKL
Take B1: the K0.5 in series [3] (pH 7.4, 0-2 mM H4SiO4, 60 min) is 470 µM.

B2: AQP9 (Homo sapiens) (protein)
chain: MQPEGAEKGKSFKQRLVLKSSLAKETLSEFLGTFILIVLGCGCVAQAILSRGRFGGVITINVGFSMAVAMAIYVAGGVSGGHINPAVSLAMCLFGRMKWFKLPFYVGAQFLGAFVGAATVFGIYYDGLMSFAGGKLLIVGENATAHIFATYPAPYLSLANAFADQVVATMILLIIVFAIFDSRNLGAPRGLEPIAIGLLIIVIASSLGLNSGCAMNPARDLSPRLFTALAGWGFEVFRAGNNFWWIPVVGPLVGAVIGGLIYVLVIEIHHPEPDSVFKTEQSEDKPEKYELSVIM
As for B2, in series [3] (pH 7.4, 0-2 mM H4SiO4, 30 min), the K0.5 worked out at 117 µM.

B3: AQP7 (Homo sapiens) (protein)
chain: MVQASGHRRSTRGSKMVSWSVIAKIQEILQRKMVREFLAEFMSTYVMMVFGLGSVAHMVLNKKYGSYLGVNLGFGFGVTMGVHVAGRISGAHMNAAVTFANCALGRVPWRKFPVYVLGQFLGSFLAAATIYSLFYTAILHFSGGQLMVTGPVATAGIFATYLPDHMTLWRGFLNEAWLTGMLQLCLFAITDQENNPALPGTEALVIGILVVIIGVSLGMNTGYAINPSRDLPPRIFTFIAGWGKQVFSNGENWWWVPVVAPLLGAYLGGIIYLVFIGSTIPREPLKLEDSVAYEDHGITVLPKMGSHEPTISPLTPVSVSPANRSSVHPAPPLHESMALEHF
In the case of B3, in series [3] (pH 7.4, 0-2 mM H4SiO4 (value above tested range), 90 min), the K0.5 was 2300 µM.
